# Measured values reported in publication PMC6637133, “SPRTN protease and checkpoint kinase 1 cross-activation loop safeguards DNA replication” (Nature Communications, 2019).
# T1: recombinant His6-tagged SPRTN (human, UniProt Q9H040 1-489)
# T1 construct: SPRTN metalloprotease, human; The methods of this pull-down are not described; also called purified SPRTN; source: recombinant, purified in house from E. coli
# T1 sequence (looked up): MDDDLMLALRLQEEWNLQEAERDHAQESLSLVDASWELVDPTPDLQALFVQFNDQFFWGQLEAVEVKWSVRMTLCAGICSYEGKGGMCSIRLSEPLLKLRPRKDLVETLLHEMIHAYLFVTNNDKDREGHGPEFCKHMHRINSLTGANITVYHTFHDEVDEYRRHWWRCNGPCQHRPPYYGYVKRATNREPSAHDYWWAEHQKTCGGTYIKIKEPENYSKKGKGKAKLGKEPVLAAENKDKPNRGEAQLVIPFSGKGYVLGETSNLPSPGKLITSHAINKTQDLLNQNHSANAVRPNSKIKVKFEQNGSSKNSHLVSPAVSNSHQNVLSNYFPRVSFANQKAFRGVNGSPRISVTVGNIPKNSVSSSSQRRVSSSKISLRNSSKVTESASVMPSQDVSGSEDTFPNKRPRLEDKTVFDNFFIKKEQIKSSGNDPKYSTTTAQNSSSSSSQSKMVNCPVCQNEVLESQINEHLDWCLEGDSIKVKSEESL
# B1: Purified CHK1 (enzyme, human, UniProt O14757 1-476, looked up)
# chain: MAVPFVEDWDLVQTLGEGAYGEVQLAVNRVTEEAVAVKIVDMKRAVDCPENIKKEICINKMLNHENVVKFYGHRREGNIQYLFLEYCSGGELFDRIEPDIGMPEPDAQRFFHQLMAGVVYLHGIGITHRDIKPENLLLDERDNLKISDFGLATVFRYNNRERLLNKMCGTLPYVAPELLKRREFHAEPVDVWSCGIVLTAMLAGELPWDQPSDSCQEYSDWKEKKTYLNPWKKIDSAPLALLHKILVENPSARITIPDIKKDRWYNKPLKKGAKRPRVTSGGVSESPSGFSKHIQSNLDFSPVNSASSEENVKYSSSQPEPRTGLSLWDTSPSYIDKLVQGISFSQPTCPDHMLLNSQLLGTPGSSQNPWQRLVKRMTRFFTKLDADKSYQCLKETCEKLGYQWKKSCMNQVTISTTDRRNNKLIFKVNLLEMDDKILVDFRLSKGDGLEFKRHFLKIKGKLIDIVSSQKIWLPAT
# notes: checkpoint kinase 1 (CHK1), human
# Molecular target: T1, recombinant His6-tagged SPRTN
# Assay: pull-down; recombinant His6-tagged SPRTN held on Ni-NTA beads, purified CHK1 co-precipitated; immunoblot
# Details: both partners purified
binder,measurement,value
B1,binding result,binds
